# According to US20220356255A1 (CENTESSA PHARMACEUTICALS UK, published 2022):
# Residue numbers refer to the chain shown, from its start.
# B1: 8B06 mAb (antibody, V domains shown)
# VH: QVQLVQSGGGVVQPGRSLRLSCAASGFTFSSYGMYWVRQAPGKGLEWVAVISYDGSNKYYADSVKGRFTISRDNSKNTLNLQMNSLRAEDTAVYYCAKGALTHWGVVIGDGMDVWGQGTTVTVSS
# VL: NFMLTQPHSVSESPGKTVTISCRETELSRRLHYVRWYQQRPGSSPTTVIYEDDQRPSGVPDRFSGSIDSSSNSASLTISGLKTEDEADYYCQSFDSTNPWVFGGGTKLTVL
# notes: Formatted into an IgG1; also called 8B06 IgG1
# B2: 8G08 mAb (antibody, V domains shown)
# VH: B1 VH
# VL: B1 VL with R23I, E24S, T25N, E26D, L27V, S28P, R29A, R30S, L31G, V34H
# notes: Formatted into an IgG1; also called 8G08 IgG1
# B3: 8A04 mAb (antibody, V domains shown)
# VH: B1 VH
# VL: B1 VL with R23M, E24R, E26G, L27T, S28G, R29N, R30K, L31G, V34T
# notes: Formatted into an IgG1; also called 8A04 IgG1
# B4: 8D06 mAb (antibody, V domains shown)
# VH: B1 VH
# VL: B1 VL with R23V, E24L, T25S, E26P, L27R, S28T, R29H, R30A, L31G, V34Y
# notes: Formatted into an IgG1; also called 8D06 IgG1
# B5: 8D04 mAb (antibody, V domains shown)
# VH: B1 VH
# VL: B1 VL with E24G, E26G, L27S, R29F, R30H, L31H, H32K
# notes: Formatted into an IgG1; also called 8D04 IgG1
# B6: Fab 8B06 (Fab, V domains shown)
# VH: B1 VH
# VL: B1 VL
# notes: Purified Fab prepared from IgG with the Pierce kit; also called 8B06 Fab
# B7: Fab 8D04 (Fab, V domains shown)
# VH: B1 VH
# VL: B1 VL with E24G, E26G, L27S, R29F, R30H, L31H, H32K
# notes: Purified Fab prepared from IgG with the Pierce kit; also called 8D04 Fab
# B8: Fab 8G08 (Fab, V domains shown)
# VH: B1 VH
# VL: B1 VL with R23I, E24S, T25N, E26D, L27V, S28P, R29A, R30S, L31G, V34H
# notes: Purified Fab prepared from IgG with the Pierce kit; also called 8G08 Fab
# B9: Fab 8A04 (Fab, V domains shown)
# VH: B1 VH
# VL: B1 VL with R23M, E24R, E26G, L27T, S28G, R29N, R30K, L31G, V34T
# notes: Purified Fab prepared from IgG with the Pierce kit; also called 8A04 Fab
# Biological target: T1, human PD-L1 on cells (human, UniProt Q9NZQ7 19-290)
# T1 construct: Endogenous on MDA-MB-231 cells or transfected into HEK293FF cells (Sino Biological plasmid); the assay field says which; also called native PD-L1 on MDA-MB-231 cells; PD-L1 expressing MDA-MB-231 cells
# Assay: flow cytometry on MDA-MB-231 cells, pH 6
# T1 sequence (Q9NZQ7 19-290 limits assumed): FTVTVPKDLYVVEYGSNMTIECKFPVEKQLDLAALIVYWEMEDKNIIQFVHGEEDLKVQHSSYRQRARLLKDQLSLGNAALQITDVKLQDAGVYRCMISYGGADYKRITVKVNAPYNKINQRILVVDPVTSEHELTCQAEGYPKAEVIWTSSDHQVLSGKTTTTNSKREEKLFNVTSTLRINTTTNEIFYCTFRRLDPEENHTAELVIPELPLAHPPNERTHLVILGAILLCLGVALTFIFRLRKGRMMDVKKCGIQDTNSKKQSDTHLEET
row,EC50,Binder
1,0.14 nM,B1
2,0.08 nM,B2
3,0.09 nM,B3
4,0.11 nM,B4
5,0.11 nM,B5

# Biological target: T2, human PD-L1-Fc protein (human, UniProt Q9NZQ7 19-239)
# T2 construct: Bought from R&D Systems; also called immobilised PD-L1-Fc; not shown: Fc part of the bought fusion protein, not described
# Assay: ELISA, Fab on coated human PD-L1-Fc, pH 6
# T2 sequence (Q9NZQ7 19-239 limits assumed): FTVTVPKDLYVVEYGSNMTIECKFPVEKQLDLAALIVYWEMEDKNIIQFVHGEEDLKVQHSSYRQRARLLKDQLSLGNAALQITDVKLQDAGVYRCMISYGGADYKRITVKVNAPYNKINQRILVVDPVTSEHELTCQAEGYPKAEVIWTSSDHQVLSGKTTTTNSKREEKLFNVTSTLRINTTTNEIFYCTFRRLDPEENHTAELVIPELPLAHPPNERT
row,EC50,Binder
1,0.31 nM,B6
2,2.63 nM,B7
3,0.1 nM,B8
4,0.54 nM,B9

# Biological target: T1, human PD-L1 on cells
# Assay: flow cytometry on MDA-MB-231 cells, pH 6.5
row,EC50,Binder
1,0.17 nM,B1
2,0.07 nM,B2
3,0.11 nM,B3
4,0.11 nM,B4
5,0.13 nM,B5

# Biological target: T1, human PD-L1 on cells
# Assay: flow cytometry on MDA-MB-231 cells, pH 7.4
row,EC50,Binder
1,0.12 nM,B1
2,0.09 nM,B2
3,0.09 nM,B3
4,0.08 nM,B4
5,0.1 nM,B5

# Biological target: T2, human PD-L1-Fc protein
# Assay: ELISA, Fab on coated human PD-L1-Fc, pH 7.4
row,EC50,Binder
1,> 100 nM,B6
2,> 100 nM,B7
3,> 100 nM,B8
4,> 10 nM,B9

# Biological target: T1, human PD-L1 on cells
# Assay: flow cytometry on MDA-MB-231 cells, Krebs buffer, pH 6
# Description: (§1) Anti-PD-L1 affinity matured Fabs were tested for their ability to bind to native PD-L1 in a cell line, (MDA-MB-231 cells) in a buffer resembling the tumor microenvironment (Krebs-lactate).
row,EC50,Binder
1,2 nM,B6
2,13.5 nM,B7
3,1.58 nM,B8
4,2.16 nM,B9

# Biological target: T2, human PD-L1-Fc protein
# Assay: ELISA, purified Fab on coated human PD-L1-Fc, pH 6 (FIG. 4)
row,concentration at saturation of binding,Binder
1,4 nM,B6
2,4 nM,B7
3,4 nM,B8
4,4 nM,B9

# Biological target: T1, human PD-L1 on cells
# Assay: flow cytometry on MDA-MB-231 cells, Krebs buffer, pH 6.5
# Description: as §1
row,EC50,Binder
1,6.4 nM,B6
2,56.4 nM,B7
3,2.95 nM,B8
4,6.62 nM,B9

# Biological target: T1, human PD-L1 on cells
# Assay: flow cytometry on MDA-MB-231 cells, Krebs buffer, pH 7.4
# Description: as §1
row,EC50,Binder
1,> 100 nM,B6
2,> 100 nM,B7
3,13.2 nM,B8
4,> 100 nM,B9

# Biological target: T3, biotinylated human PD-L1 (human, UniProt Q9NZQ7 19-239, limits assumed, biotinylated (sites not given))
# T3 construct: Bought from R&D Systems; also called biotinylated-PD-L1; human PD-L1 biotin
# Assay: competition ELISA, Fab with biotinylated PD-L1 on coated PD-1-Fc
# T3 sequence (Q9NZQ7 19-239 limits assumed): as above
fold less inhibitory activity at pH 6.5 than at pH 6,"fold less potent than Fabs 8D06, 8A04, 8G08 and 8B06",Binder
~3 fold,–,B6
–,~3 fold,B7
~3 fold,–,B8
~3 fold,–,B9

# Biological target: T2, human PD-L1-Fc protein
# Assay: BIAcore off rate, unpurified periplasmic extract Fab on PD-L1
row,Ratio pH 6 vs 7.4,Binder
1,13,B6
2,10,B7
3,27,B8
4,9,B9

# Biological target: T3, biotinylated human PD-L1
# Assay: competition ELISA, Fab with biotinylated PD-L1 on coated PD-1-Fc, pH 6
row,fold less (IC50) than the control Fab 2.7A04OPT at pH 6,Binder
1,~3 fold,B6
2,~3 fold,B8
3,~3 fold,B9

# Biological target: T2, human PD-L1-Fc protein
# Assay: BIAcore off rate, unpurified periplasmic extract Fab on PD-L1, pH 6
row,koff,Binder
1,0.00135 s⁻¹,B6
2,0.00283 s⁻¹,B7
3,0.000823 s⁻¹,B8
4,0.00131 s⁻¹,B9

# Biological target: T2, human PD-L1-Fc protein
# Assay: BIAcore off rate, unpurified periplasmic extract Fab on PD-L1, pH 7.4
row,koff,Binder
1,0.0105 s⁻¹,B6
2,0.0275 s⁻¹,B7
3,0.00308 s⁻¹,B8
4,0.015 s⁻¹,B9

# Biological target: T3, biotinylated human PD-L1
# Assay: competition ELISA, Fab with biotinylated PD-L1 on coated PD-1-Fc, pH 6
# Remark: another data set of the same source
row,IC50,Binder
1,15.7 nM,B6
2,42.3 nM,B7
3,12.1 nM,B8
4,12.2 nM,B9

# Biological target: T1, human PD-L1 on cells
# Assay: flow cytometry on MDA-MB-231 cells, Krebs buffer; ratio of EC50 values
# Description: as §1
row,Ratio pH 6:7.4,Binder
1,> 50,B6
2,> 7.41,B7
3,8.35,B8
4,> 46.3,B9

# Biological target: T1, human PD-L1 on cells
# Assay: flow cytometry on MDA-MB-231 cells, Krebs-lactate buffer, pH 6 versus pH 7.4
# Description: In order to mimic an acidic tumor environment milieu with tumor cells expressing PD-L1 (The metabolism of tumors in the body, Warburg et al. J Gen Physiol. 1927; 8:519-30) the following buffers were utilised: Krebs ringer bicarbonate buffer (KRB, Amsbio catalog number KRB-1000) with 1 mM lactic acid (Sigma catalog number 252476-50DG) for pH 7.4; KRB plus 15 mM lactic acid for pH 6.5 and KRB plus 20 mM lactic acid for pH 6.0). 3 fold dilutions (100 nM to 0.0005 nM; 0) of the Fabs or IgG were prepared in the respective pH buffers and incubated with 0.60E05 MDA-MB-231 cells for 60 minutes at 4° C. The cells were then washed 3× with the respective pH buffers, at 300 g for 3 min. The cells were then incubated with 50 μl of anti-human IgG (Fab specific)-FITC (Sigma, catalog number F5512-1ML) at 1:100 dilution in the respective pH buffers. Binding of the IgG or Fab to PD-L1 expressing cells was measured by FACS (Attune Nxt) and a total of 10.000 cells were acquired per sample.
# as §1
row,pH binding preference (fold),Binder
1,> 100 fold,B6
2,> 100 fold,B7
3,> 100 fold,B9

# Biological target: T3, biotinylated human PD-L1
# Assay: competition ELISA, Fab with biotinylated PD-L1 on coated PD-1-Fc, pH 6.5
row,IC50,Binder
1,52.7 nM,B6
2,> 100 nM,B7
3,41.6 nM,B8
4,29.4 nM,B9

# Biological target: T3, biotinylated human PD-L1
# Assay: competition ELISA, Fab with biotinylated PD-L1 on coated PD-1-Fc, pH 7.4
row,IC50,Binder
1,> 100 nM,B6
2,> 100 nM,B7
3,> 100 nM,B8
4,81.2 nM,B9

# Biological target: T3, biotinylated human PD-L1
# Assay: competition ELISA, Fab with biotinylated PD-L1 on coated PD-1-Fc; ratio of IC50 values
row,Ratio pH 6:7.4,Binder
1,> 6.37,B6
2,> 2.36,B7
3,> 8.26,B8
4,6.66,B9

# Biological target: T2, human PD-L1-Fc protein
# Assay: ELISA, Fab on coated human PD-L1-Fc; ratio from extrapolating an OD of 0.3 at pH 6 versus pH 7.4
row,Ratio pH 6:7.4,Binder
1,38,B6
2,9,B7
3,53,B8
4,11,B9
